From PMC8501640, “Altered Env conformational dynamics as a mechanism of resistance to peptide-triazole HIV-1 inactivators” (Retrovirology, 2021)

Legend:
[1] = molecular target: HxBc2 gp120 V255I monomer (Human immunodeficiency virus type 1 group M subtype B, UniProt P04578, V255I); assay: Isothermal titration calorimetry, V255I gp120; format: binding, HIV-1
Method: (§1) Heats were obtained at 25 °C by injection of 8 μL of PT (100 μM) into a sample cell of a VP-ITC containing 1.4 mL recombinant HxBc2 gp120 (6–8 μM). Solid lines represent fits to a single site binding model.
(§2) The resulting heat changes upon injection were integrated over a time range of 240 s, and the obtained values were fit to a standard single site-binding model using Origin® software.

CEM-GFP cells = assay: WST-1 cytotoxicity assay; format: cell-based
Method: The cytotoxicity was determined on CEM-GFP cells via a colorimetric assay to measure the relative proliferation rates of cells in culture. […] After 18 h of incubation, the media containing compounds were discarded and treated with 10% (v/v) WST-1 (a tetrazolium salt) in fresh media for one hour at 37 °C. The cell viability was determined by measuring the absorbance at 450 nm using a Tecan Infinite F50 plate reader.
Figure S1. […] Data represent means and standard deviations of three independent experiments performed in triplicate.

BaL.01 viruses = system: BaL.01 viruses; parameters: method as in PMID 24330857, PMID 26331669; details: ref [16], [21], read-out: EC50 of induced gp120 shedding; cited from earlier work
HxBc2 gp120 WT monomer = HxBc2 gp120 WT monomer (Human immunodeficiency virus type 1 group M subtype B, UniProt P04578); assay: Isothermal titration calorimetry, WT gp120; format: binding, HIV-1; details: 25 °C
Method: as §1, §2

[2] = molecular target: HIV-1 HxBc2 gp120 V255I monomer (Human immunodeficiency virus type 1 group M subtype B, UniProt P04578, V255I); assay: Surface plasmon resonance, V255I gp120; format: binding
Method: (§3) SPR experiments were performed on a Biacore 3000 biosensor (Global Cytiva Lifesciences) at 25 °C using PBS-P (10 mM Phosphate, 150 mM NaCl, pH 7.4, 0.005% P-20) as the running buffer. A CM5 sensor chip was docked and derivatized by amine coupling with HIV-1HxBc2 WT and mutant gp120 subunits using freshly prepared 1:1 50 mM NHS (N-hydroxysuccinamide):200 mM EDC (1-ethyl-3-(3-(dimethylamino)propyl) carbodiimide). […] The equilibrium dissociation constant was calculated as KD = k−1/k1.
(§4) Rate constants k1 and k-1 are defined as they are in the 1:1 binding model, while k2 and k-2 are first order rate constants describing isomerization and de-isomerization, respectively. Equations describing the time course of the interactions can be found in Additional file 1: Method S1. For the fit, it was assumed that the states Env·PT and Env·PT^∗ had the same SPR signal. Rate constants were determined using a least-squares gradient-step algorithm coded in Visual Basic and implemented through Microsoft Excel.

[3] = molecular target: HxBc2 gp120 V255I/S143N monomer (Human immunodeficiency virus type 1 group M subtype B, UniProt P04578, S143N/V255I); assay: Isothermal titration calorimetry, V255I/S143N gp120; format: binding, HIV-1; details: 25 °C
Method: as §1, §2

[4] = molecular target: HIV-1 HxBc2 gp120 V255I/S143N monomer (Human immunodeficiency virus type 1 group M subtype B, UniProt P04578, S143N/V255I); assay: Surface plasmon resonance, V255I/S143N gp120; format: binding
Method: as §3, §4

[5] = molecular target: HIV-1 HxBc2 gp120 WT monomer (Human immunodeficiency virus type 1 group M subtype B, UniProt P04578); assay: Surface plasmon resonance, WT gp120; format: binding
Method: as §3, §4

[6] = molecular target: HIV-1 HxBc2 gp120 V255I, monomeric (HIV-1 (HxBc2 strain)) (UniProt P04578); assay: SPR; Biacore 3000, 25 °C, PBS-P (10 mM phosphate, 150 mM NaCl, pH 7.4, 0.005% P-20); gp120 monomers amine-coupled to CM5 chip (1800–2200 RU), analytes flowed at 50 µL/min; AAR029b and sCD4 fitted to a Langmuir 1:1 model, KR13 to a three-state binding/isomerization model
[7] = molecular target: HIV-1 HxBc2 gp120 V255I/S143N, monomeric (HIV-1 (HxBc2 strain)) (UniProt P04578); assay: as above
[8] = molecular target: HIV-1 HxBc2 gp120, wild type, monomeric (HIV-1 (HxBc2 strain)) (UniProt P04578); assay: ITC
[9] = molecular target: HIV-1 HxBc2 gp120, wild type, monomeric (HIV-1 (HxBc2 strain)) (UniProt P04578); assay: SPR
[10] = molecular target: HIV-1 NL4-3 Env V255T (HIV-1 (NL4-3 strain))
[11] = molecular target: HIV-1 HxBc2 Env V255T/S143N (HIV-1 (HxBc2 strain)) (UniProt P04578)
[12] = molecular target: HIV-1 HxBc2 gp120 V255I, monomeric (HIV-1 (HxBc2 strain)) (UniProt P04578)
[13] = molecular target: HIV-1 HxBc2 Env S143N (HIV-1 (HxBc2 strain)) (UniProt P04578)
[14] = molecular target: HIV-1 NL4-3 Env V255T/S143N (HIV-1 (NL4-3 strain))
[15] = molecular target: HIV-1 HxBc2 gp120 V255I/S143N, monomeric (HIV-1 (HxBc2 strain)) (UniProt P04578)
[16] = molecular target: HIV-1 NL4-3 Env S143N (HIV-1 (NL4-3 strain))
[17] = molecular target: HIV-1 HxBc2 Env V255T (HIV-1 (HxBc2 strain)) (UniProt P04578)
[18] = molecular target: HIV-1 NL4-3 Env V255I/S143N (HIV-1 (NL4-3 strain))
[19] = molecular target: HIV-1 NL4-3 Env V255I (HIV-1 (NL4-3 strain))
[20] = molecular target: HIV-1 HxBc2 gp120 V255I, monomeric (HIV-1 (HxBc2 strain)) (UniProt P04578); assay: ITC; VP-ITC, 25 °C, 1 × PBS pH 7.4; 60–100 µM PT titrated in 8 µL steps into 2–8 µM monomeric HxBc2 gp120; single site-binding model
[21] = molecular target: HIV-1 HxBc2 gp120 V255I/S143N, monomeric (HIV-1 (HxBc2 strain)) (UniProt P04578); assay: as above
[22] = V255I and V255I/S143N vs WT gp120
[23] = de-isomerization, three-state model
[24] = isomerization, three-state model

Molecule: CC[C@H](C)[C@H](NC(=O)[C@@H](N)CCCNC(=N)N)C(=O)N[C@@H](CC(N)=O)C(=O)N[C@@H](CC(N)=O)C(=O)N[C@H](C(=O)N1CC(n2cc([C]34[CH]5[CH]6[CH]7[CH]3[Fe]6754389%10[CH]4[CH]3[CH]8[CH]9[CH]4%10)nn2)C[C@H]1C(=O)N[C@@H](Cc1c[nH]c2ccccc12)C(=O)N[C@@H](CO)C(=O)N[C@@H](CCC(=O)O)C(=O)N[C@@H](C)C(=O)N[C@@H](CCSC)C(=O)N[C@@H](CCSC)C(=O)NCCC(=O)N[C@@H](CCC(N)=O)C(=O)NCCC(=O)N[C@@H](CS)C(N)=O)[C@@H](C)CC (stereo partly drawn) [KR13]
- ITC binding stoichiometry n ([1]; V255I gp120 (HxBc2), 25 °C): 1.0 ± 0.04
- ITC −TΔS ([1]; V255I gp120 (HxBc2), 25 °C): 2.9 ± 1.5 kcal/mol
- absolute impact of V255I substitution on enthalpy (ΔH) and entropy (TΔS) ([1]; mutant vs wild type gp120, ITC): 5 to 7 kcal/mol
- concentration above which cytotoxicity was noted (CEM-GFP cells; 18 h): above 25 μM
- cells dying (CEM-GFP cells; at a concentration of 125 μM): ~ 30%
- EC50 (BaL.01 viruses): 32 nM
- ITC binding stoichiometry n (HxBc2 gp120 WT monomer): 1.1 ± 0.01
- ITC −TΔS (HxBc2 gp120 WT monomer): 7.8 ± 3.0 kcal/mol
- disruption of affinity by escape mutations, SPR [2, 22]: four to sixfold
- effect of escape mutations on de-isomerization kinetics, SPR [2, 22]: three to fourfold
- SPR k1 ([2]; V255I gp120, PT association): 2.3 (M^−1 s^−1) × 10^–5
- SPR k-1 ([2]; V255I gp120, PT dissociation): 14 (s^−1) × 10^3
- SPR k-2 ([2]; V255I gp120, de-isomerization, three-state model): 0.72 (s^−1) × 10^3
- SPR k2 ([2]; V255I gp120, isomerization, three-state model): 8.4 (s^−1) × 10^3
- ITC binding stoichiometry n [3]: 1.1 ± 0.08
- ITC −TΔS [3]: 1.9 ± 0.93 kcal/mol
- SPR k1 ([4]; PT association): 2.8 (M^−1 s^−1) × 10^–5
- SPR k-1 ([4]; PT dissociation): 18 (s^−1) × 10^3
- SPR k-2 [4, 23]: 1.0 (s^−1) × 10^3
- SPR k2 [4, 24]: 9.0 (s^−1) × 10^3
- SPR k1 ([5]; PT association): 2.9 (M^−1 s^−1) × 10^–5
- SPR k-1 ([5]; PT dissociation): 9.6 (s^−1) × 10^3
- SPR k-2 [5, 23]: 0.25 (s^−1) × 10^3
- SPR k2 [5, 24]: 7.0 (s^−1) × 10^3

Molecule: KR13, linear peptide triazole thiol
- k1 (association step of the three-state model) [6]: 230000 M⁻¹ s⁻¹
- k2 (isomerization step of the three-state model) [6]: 0.0084 s⁻¹
- k-1 (dissociation step of the three-state model) [6]: 0.014 s⁻¹
- k-2 (de-isomerization step of the three-state model) [6]: 0.00072 s⁻¹
- k1 (association step of the three-state model) [7]: 280000 M⁻¹ s⁻¹
- k2 (isomerization step of the three-state model) [7]: 0.009 s⁻¹
- k-1 (dissociation step of the three-state model) [7]: 0.018 s⁻¹
- k-2 (de-isomerization step of the three-state model) [7]: 0.001 s⁻¹
- Kd [8]: 16 nM
- dH [8]: -19 kcal/mol
- stoichiometry N [8]: 1.1
- Kd [9]: 1.1 nM
- k1 (association step of the three-state model) [9]: 290000 M⁻¹ s⁻¹
- k2 (isomerization step of the three-state model) [9]: 0.007 s⁻¹
- k-1 (dissociation step of the three-state model) [9]: 0.0096 s⁻¹
- k-2 (de-isomerization step of the three-state model) [9]: 0.00025 s⁻¹
- IC50 of inhibition of single-round infection of HOS.T4.X4 cells by HIV-1 pseudotyped with NL4-3 Env (luciferase) [10]: 360 nM
- IC50 of inhibition of single-round infection of HOS.T4.X4 cells by HIV-1 pseudotyped with HxBc2 Env (luciferase) [11]: 7100 nM
- IC50 of inhibition of single-round infection of HOS.T4.X4 cells by HIV-1 pseudotyped with HxBc2 Env (luciferase) [12]: 91 nM
- IC50 of inhibition of single-round infection of HOS.T4.X4 cells by HIV-1 pseudotyped with HxBc2 Env (luciferase) [13]: 1.4 nM
- IC50 of inhibition of single-round infection of HOS.T4.X4 cells by HIV-1 pseudotyped with NL4-3 Env (luciferase) [14]: 6200 nM
- IC50 of inhibition of single-round infection of HOS.T4.X4 cells by HIV-1 pseudotyped with HxBc2 Env (luciferase) [15]: 4600 nM
- IC50 of inhibition of single-round infection of HOS.T4.X4 cells by HIV-1 pseudotyped with NL4-3 Env (luciferase) [16]: 3.5 nM
- IC50 of inhibition of single-round infection of HOS.T4.X4 cells by HIV-1 pseudotyped with HxBc2 Env (luciferase) [17]: 330 nM
- IC50 of inhibition of single-round infection of HOS.T4.X4 cells by HIV-1 pseudotyped with NL4-3 Env (luciferase) [18]: 3700 nM
- IC50 of inhibition of single-round infection of HOS.T4.X4 cells by HIV-1 pseudotyped with NL4-3 Env (luciferase) [19]: 120 nM
- dH [20]: -13 kcal/mol
- stoichiometry N [20]: 1
- dH [21]: -12 kcal/mol
- stoichiometry N [21]: 1.1
